Earlier results as cited in PMC7143316.

Assays:
Kv1.2 (Homo sapiens) = Kv1.2 (Homo sapiens) (UniProt P16389)
Kv1.3 (Homo sapiens) = Kv1.3 (Homo sapiens) (UniProt P22001)
Kv1.1 (Homo sapiens) = Kv1.1 (Homo sapiens) (UniProt Q09470)
UniProt Q09470, sequence (Q09470 whole entry): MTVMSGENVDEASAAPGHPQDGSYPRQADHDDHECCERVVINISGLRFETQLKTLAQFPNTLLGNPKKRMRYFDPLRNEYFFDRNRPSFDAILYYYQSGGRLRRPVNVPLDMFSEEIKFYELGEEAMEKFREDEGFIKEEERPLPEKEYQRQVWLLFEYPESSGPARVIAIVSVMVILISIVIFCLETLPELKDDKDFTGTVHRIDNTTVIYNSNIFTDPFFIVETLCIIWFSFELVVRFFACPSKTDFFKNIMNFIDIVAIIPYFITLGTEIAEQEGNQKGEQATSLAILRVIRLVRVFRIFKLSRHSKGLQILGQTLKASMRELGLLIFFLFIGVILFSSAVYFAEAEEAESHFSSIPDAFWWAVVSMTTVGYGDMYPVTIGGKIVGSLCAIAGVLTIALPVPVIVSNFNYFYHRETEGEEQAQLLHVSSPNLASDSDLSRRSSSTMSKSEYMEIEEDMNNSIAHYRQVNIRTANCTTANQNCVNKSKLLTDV

UniProt P22001, sequence (P22001 whole entry): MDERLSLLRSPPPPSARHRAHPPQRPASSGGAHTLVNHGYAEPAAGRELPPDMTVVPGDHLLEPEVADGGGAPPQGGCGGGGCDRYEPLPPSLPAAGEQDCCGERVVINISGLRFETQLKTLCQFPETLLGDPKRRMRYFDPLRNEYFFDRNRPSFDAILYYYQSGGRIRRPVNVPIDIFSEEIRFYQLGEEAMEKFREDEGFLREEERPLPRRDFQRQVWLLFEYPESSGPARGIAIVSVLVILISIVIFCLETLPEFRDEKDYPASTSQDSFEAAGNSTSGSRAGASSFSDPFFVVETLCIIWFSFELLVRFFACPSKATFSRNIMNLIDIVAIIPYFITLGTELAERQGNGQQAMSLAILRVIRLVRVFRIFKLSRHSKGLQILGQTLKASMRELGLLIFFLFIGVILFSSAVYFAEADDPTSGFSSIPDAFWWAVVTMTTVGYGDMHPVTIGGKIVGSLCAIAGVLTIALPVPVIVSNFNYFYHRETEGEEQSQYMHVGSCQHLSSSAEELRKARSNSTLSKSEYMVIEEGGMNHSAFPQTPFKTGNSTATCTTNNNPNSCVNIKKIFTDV
UniProt P16389, sequence (P16389 whole entry): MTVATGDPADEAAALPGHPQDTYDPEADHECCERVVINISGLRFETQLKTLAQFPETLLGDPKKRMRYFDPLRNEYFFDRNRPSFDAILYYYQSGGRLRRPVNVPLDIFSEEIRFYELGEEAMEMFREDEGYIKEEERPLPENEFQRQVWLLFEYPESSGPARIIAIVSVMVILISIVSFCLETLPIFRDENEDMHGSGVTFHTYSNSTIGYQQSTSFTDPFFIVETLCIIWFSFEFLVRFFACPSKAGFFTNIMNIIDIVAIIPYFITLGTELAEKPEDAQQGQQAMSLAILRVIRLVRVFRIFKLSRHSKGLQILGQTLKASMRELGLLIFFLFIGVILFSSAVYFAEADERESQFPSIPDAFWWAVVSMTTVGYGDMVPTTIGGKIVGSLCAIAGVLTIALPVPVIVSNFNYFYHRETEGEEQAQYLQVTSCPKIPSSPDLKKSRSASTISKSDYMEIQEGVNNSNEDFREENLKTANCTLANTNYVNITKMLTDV

Substance: BgK (from UniProt P29186)
- Kd (Kv1.2 (Homo sapiens)): 15 nM
- Kd (Kv1.3 (Homo sapiens)): 10 nM
- Kd (Kv1.1 (Homo sapiens)): 6 nM
